The values that follow come from paper PMC10566545.

The series has as its target RNAP containing His-RpoA (wild type) (Pseudomonas aeruginosa PAO1) (UniProt O52760+Q51561+Q9HWC9+Q9HTM1). The series is described as follows: EMSA. The conditions noted are these: 10 mM Tris-HCl, 50 mM KCl, 1 mM DTT, 1% glycerin, 10 mM MgCl2, 1 ug/ul poly(dI-dC), pH 7.5, room temperature, 30 min; 30 ng probe, 0.2 ug protein. Background: Mobility shift assays separate free from complexed probe on a gel.

Chain of RNAP containing His-RpoA (wild type) (Pseudomonas aeruginosa PAO1) (O52760 whole entry, chain 1 of 4): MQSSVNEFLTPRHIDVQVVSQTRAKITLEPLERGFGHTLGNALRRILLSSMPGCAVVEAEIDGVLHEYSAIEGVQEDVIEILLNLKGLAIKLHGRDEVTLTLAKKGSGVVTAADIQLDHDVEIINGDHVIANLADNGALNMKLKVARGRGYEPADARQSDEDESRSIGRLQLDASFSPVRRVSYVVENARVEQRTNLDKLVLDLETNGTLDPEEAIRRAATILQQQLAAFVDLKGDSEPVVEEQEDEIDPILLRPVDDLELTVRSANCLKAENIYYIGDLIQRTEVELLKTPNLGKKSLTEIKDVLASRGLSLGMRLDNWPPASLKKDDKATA
Chain of RNAP containing His-RpoA (wild type) (Pseudomonas aeruginosa PAO1) (Q51561 whole entry, chain 2 of 4): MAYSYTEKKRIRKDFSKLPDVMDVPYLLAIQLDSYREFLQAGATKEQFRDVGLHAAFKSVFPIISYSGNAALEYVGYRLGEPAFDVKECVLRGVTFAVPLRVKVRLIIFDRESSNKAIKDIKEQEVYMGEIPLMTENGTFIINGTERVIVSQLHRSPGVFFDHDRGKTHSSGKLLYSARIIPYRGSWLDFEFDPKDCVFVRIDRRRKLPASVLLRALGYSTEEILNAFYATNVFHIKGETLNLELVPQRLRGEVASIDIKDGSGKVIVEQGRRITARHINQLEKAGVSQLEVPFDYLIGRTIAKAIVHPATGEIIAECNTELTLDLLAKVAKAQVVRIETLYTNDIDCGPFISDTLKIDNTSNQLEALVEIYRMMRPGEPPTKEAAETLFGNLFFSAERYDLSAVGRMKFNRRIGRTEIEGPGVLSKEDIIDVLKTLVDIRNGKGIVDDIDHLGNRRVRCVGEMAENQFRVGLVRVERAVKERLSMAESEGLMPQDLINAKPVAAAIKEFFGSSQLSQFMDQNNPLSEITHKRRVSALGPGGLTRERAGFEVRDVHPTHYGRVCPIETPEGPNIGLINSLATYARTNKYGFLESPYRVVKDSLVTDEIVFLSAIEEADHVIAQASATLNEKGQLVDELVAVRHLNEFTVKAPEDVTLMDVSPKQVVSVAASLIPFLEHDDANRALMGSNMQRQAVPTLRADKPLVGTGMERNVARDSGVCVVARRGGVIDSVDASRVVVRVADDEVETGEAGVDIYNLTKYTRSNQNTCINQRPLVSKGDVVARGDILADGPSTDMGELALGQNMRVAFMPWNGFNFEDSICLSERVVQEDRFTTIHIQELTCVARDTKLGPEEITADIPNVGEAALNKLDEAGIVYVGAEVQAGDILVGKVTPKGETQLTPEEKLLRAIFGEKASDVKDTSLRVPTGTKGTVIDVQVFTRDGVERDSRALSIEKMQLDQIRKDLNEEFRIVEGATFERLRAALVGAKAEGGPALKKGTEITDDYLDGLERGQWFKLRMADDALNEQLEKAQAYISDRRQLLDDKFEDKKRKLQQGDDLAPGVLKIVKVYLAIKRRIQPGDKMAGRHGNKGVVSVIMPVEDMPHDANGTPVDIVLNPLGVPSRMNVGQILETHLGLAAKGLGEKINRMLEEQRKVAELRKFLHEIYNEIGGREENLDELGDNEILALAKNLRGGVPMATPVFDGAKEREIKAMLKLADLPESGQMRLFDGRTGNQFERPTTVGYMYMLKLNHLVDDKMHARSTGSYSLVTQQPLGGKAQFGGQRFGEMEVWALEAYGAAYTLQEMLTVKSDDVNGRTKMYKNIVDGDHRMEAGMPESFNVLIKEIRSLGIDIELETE
Chain of RNAP containing His-RpoA (wild type) (Pseudomonas aeruginosa PAO1) (Q9HWC9 whole entry, chain 3 of 4): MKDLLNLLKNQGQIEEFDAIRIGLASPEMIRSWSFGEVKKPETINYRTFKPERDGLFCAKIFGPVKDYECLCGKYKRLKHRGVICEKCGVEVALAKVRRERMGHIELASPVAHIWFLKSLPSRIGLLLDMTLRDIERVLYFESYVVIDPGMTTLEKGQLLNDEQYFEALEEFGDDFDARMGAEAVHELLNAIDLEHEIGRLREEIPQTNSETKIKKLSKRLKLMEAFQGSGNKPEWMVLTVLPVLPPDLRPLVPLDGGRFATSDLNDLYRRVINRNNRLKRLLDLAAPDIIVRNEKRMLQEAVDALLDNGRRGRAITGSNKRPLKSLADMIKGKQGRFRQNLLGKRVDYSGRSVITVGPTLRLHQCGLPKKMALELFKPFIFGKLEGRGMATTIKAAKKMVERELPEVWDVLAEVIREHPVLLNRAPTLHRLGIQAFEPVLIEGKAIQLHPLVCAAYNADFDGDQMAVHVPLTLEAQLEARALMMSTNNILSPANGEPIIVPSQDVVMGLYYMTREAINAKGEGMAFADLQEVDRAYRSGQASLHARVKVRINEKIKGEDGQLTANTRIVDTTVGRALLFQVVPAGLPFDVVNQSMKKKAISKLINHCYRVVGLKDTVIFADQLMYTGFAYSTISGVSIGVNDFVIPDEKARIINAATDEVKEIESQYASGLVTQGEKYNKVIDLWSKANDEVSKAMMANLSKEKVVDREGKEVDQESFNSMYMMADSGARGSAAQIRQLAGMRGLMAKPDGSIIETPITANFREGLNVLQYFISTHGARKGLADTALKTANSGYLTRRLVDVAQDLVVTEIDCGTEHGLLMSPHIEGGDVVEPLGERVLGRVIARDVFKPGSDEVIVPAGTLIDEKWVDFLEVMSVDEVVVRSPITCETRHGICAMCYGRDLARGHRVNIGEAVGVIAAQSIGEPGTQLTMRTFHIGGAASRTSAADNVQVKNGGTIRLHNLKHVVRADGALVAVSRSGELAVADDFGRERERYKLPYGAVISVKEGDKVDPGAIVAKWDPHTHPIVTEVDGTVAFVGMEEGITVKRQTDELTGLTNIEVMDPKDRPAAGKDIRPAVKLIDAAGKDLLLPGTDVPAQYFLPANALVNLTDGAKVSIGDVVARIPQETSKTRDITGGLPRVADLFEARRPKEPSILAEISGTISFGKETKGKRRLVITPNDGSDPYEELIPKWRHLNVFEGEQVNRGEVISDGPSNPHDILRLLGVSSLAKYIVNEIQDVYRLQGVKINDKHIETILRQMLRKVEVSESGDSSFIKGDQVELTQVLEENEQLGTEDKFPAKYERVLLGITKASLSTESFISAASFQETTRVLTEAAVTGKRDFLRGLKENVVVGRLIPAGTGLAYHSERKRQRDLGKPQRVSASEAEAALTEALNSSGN
Chain of RNAP containing His-RpoA (wild type) (Pseudomonas aeruginosa PAO1) (Q9HTM1 whole entry, chain 4 of 4): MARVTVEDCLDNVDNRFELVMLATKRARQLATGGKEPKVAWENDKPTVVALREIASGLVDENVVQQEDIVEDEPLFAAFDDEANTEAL

As to “AGTCTCTGAGCCCTCCGGCAGCTACCCGCACGAGGCGTCGCAACGGGAAAATCGATCGCGCGCCGCGGGTGTGCGGCTTATTCCATCGAAAGCACTGTCCATAACCATCGACTGTTACAGAAAACGAAAAACCATGTATCACTGTTCGTGATAATCAAAATCTCGTCGTTCGATTAGTTCCCTGCCGGAGCAGCCCGCAGACTTCGCCAATCCCGAAAAACCGACTGGCGGAGTCAAGCATGGTTTTTT (double strand) [PmexE probe (mexEF-oprN promoter)]”, the binding entry is given as “binds”.
